This note sets out measurements from paper PMC9177958, “Structures of nonsense-mediated mRNA decay factors UPF3B and UPF3A in complex with UPF2 reveal molecular basis for competitive binding and for neurodevelopmental disorder-causing mutation” (Nucleic Acids Research, 2022).

In one series the target is T1, UPF3B-WT (human, UniProt Q9BZI7-2 1-470).
T1 sequence: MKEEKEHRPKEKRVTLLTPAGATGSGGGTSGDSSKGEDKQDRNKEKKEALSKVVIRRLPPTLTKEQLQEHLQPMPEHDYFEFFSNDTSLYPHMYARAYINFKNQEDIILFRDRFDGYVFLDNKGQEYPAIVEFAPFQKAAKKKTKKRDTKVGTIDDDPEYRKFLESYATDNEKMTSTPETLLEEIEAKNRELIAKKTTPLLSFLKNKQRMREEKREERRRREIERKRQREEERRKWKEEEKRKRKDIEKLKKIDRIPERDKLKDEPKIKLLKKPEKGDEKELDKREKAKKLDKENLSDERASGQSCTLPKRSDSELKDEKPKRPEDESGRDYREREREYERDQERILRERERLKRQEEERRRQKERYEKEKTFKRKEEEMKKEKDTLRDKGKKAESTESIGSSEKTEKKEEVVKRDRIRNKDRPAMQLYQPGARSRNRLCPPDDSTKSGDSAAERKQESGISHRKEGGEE
The experiment in a line: fluorescence anisotropy; FA: 5 nM probe, 150 mM NaCl, 25 mM HEPES pH 7.45, 1 mM TCEP, 20 C; EMSA: 250 nM probe, 25 mM HEPES pH 7.45, 2 mM MgCl2, 150 mM NaCl, 0.5 mM TCEP, on ice. The settings on record: protein: recombinant, tags: 6xHis removed by TEV. For orientation: Fluorescence polarisation rises when a labelled molecule tumbles more slowly, as on binding a larger partner.

The target of a further series is UPF2-MIF4GIII (UniProt Q9HAU5 761-1054). The series is described as above. The settings on record: protein: recombinant; tags: 6xHis removed by TEV; label: 5' HEX; single strand; 24-mer hairpin RNA.
The target of series [1] is UPF3B-41-143 (RRM-L);UPF2-MIF4GIII (human;human?, UniProt Q9BZI7;Q9HAU5 41-143;761-1054, |). Described as above. To be noted: protein: recombinant;recombinant; tags: 6xHis removed by TEV;6xHis removed by TEV; copies: 1;1; label: 5' HEX; single strand; 24-mer hairpin RNA.
The target of a further series is T2, UPF2L (120–1227) (UniProt Q9HAU5 120-1227).
T2 construct: UPF2, larger construct with wildtype activity, amino acids 120-1227; source: E. coli BL21 Rosetta2(DE3), purified (Ni-NTA, TEV, reverse IMAC, ion exchange)
T2 sequence (looked up): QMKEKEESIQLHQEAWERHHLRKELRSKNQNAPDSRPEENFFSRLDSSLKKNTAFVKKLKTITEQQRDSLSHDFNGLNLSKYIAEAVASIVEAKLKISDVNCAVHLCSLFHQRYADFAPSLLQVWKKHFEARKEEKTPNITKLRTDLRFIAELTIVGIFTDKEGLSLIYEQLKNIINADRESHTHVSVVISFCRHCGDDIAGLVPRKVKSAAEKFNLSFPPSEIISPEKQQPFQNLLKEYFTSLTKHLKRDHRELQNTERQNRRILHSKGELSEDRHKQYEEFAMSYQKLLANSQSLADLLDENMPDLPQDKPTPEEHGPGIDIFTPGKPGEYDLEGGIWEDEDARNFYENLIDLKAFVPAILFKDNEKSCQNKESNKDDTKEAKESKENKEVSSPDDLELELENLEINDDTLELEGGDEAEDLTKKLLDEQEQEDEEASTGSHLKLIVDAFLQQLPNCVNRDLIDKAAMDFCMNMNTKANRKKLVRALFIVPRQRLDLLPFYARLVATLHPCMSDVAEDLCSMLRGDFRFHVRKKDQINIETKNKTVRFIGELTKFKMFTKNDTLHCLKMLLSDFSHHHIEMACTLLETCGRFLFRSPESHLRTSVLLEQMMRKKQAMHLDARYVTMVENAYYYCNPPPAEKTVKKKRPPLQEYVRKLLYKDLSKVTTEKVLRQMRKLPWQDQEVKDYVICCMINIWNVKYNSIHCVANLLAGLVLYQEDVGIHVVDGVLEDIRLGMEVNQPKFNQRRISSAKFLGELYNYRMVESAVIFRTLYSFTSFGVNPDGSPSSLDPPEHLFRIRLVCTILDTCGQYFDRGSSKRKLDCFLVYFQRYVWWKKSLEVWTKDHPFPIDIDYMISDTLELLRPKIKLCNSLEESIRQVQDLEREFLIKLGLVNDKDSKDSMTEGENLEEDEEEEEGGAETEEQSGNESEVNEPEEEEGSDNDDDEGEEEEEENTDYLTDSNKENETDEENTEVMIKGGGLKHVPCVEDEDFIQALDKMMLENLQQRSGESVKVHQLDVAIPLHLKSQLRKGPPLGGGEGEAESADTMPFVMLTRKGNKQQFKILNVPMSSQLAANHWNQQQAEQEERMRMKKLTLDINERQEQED
Description: native gel or EMSA; 250 nM HEX-labelled ssRNA with 2 μM UPF3B-WT or UPF2L and increasing ratios of the other; on ice 1 h; 25 mM HEPES pH 7.45, 2 mM MgCl2, 150 mM NaCl, 0.5 mM TCEP; 4–20% Tris-Glycine native gel, Coomassie. To be noted: both partners purified. In general terms: In EMSA bound probe runs differently from free probe, usually more slowly.

For the next series, the target named is T3, UPF3B-41-262 (human, UniProt Q9BZI7 41-262).
T3 sequence: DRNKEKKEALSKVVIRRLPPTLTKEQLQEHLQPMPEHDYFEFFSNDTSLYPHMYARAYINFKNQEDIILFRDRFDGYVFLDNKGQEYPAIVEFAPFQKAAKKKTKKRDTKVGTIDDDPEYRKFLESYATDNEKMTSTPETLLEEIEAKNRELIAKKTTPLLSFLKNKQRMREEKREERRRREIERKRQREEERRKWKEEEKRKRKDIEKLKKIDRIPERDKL
The experiment in a line: fluorescence anisotropy; FA: 5 nM probe, 150 mM NaCl, 25 mM HEPES pH 7.45, 1 mM TCEP, 20 C; EMSA: 250 nM probe, 25 mM HEPES pH 7.45, 2 mM MgCl2, 150 mM NaCl, 0.5 mM TCEP, on ice. To be noted: protein: recombinant; tags: 6xHis removed by TEV; label: 5' HEX on strand 1; blunt.

Another series has as its target T4, UPF3B-146-417 (human, UniProt Q9BZI7-2 146-417).
T4 sequence: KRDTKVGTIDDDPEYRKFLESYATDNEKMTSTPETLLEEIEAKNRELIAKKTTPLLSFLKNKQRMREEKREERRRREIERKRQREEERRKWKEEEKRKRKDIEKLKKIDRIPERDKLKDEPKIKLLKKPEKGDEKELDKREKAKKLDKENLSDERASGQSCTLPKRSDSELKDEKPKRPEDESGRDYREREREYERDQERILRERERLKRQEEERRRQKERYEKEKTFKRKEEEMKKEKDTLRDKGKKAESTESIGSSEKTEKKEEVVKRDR
The description is as above. To be noted: protein: recombinant; tags: 6xHis removed by TEV; label: 5' HEX on strand 1; blunt.

A further series concerns the target T5, UPF3B-146-256 (human, UniProt Q9BZI7 146-256).
T5 sequence: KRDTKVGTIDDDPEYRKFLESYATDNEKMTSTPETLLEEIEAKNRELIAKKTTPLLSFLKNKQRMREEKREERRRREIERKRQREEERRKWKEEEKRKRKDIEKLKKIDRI
The description is as above. To be noted: protein: recombinant; tags: 6xHis removed by TEV; label: 5' HEX on strand 1; blunt.

A further series has as its target T6, UPF3B-41-143 (RRM-L) (human, UniProt Q9BZI7 41-143).
T6 sequence: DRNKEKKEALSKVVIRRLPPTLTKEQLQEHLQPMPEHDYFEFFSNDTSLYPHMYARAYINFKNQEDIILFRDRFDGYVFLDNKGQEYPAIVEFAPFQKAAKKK
The series is described as above. To be noted: protein: recombinant; tags: 6xHis removed by TEV; label: 5' HEX on strand 1; blunt.

Another series has as its target T7, UPF3B-41-214 (human, UniProt Q9BZI7 41-214).
T7 sequence: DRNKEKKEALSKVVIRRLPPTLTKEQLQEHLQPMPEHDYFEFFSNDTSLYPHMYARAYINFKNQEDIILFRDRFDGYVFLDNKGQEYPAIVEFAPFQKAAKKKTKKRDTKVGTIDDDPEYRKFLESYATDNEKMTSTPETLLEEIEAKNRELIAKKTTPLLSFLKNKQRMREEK
Described as above. The settings on record: protein: recombinant; tags: 6xHis removed by TEV; label: 5' HEX on strand 1; blunt.

For the molecule CACUGAUCUGACGCUGCACCUGGG (ssRNA) [24mer ssRNA], the dissociation constant (Kd) in the series with UPF3B-WT (label: 5' HEX, single strand, 24-mer hairpin RNA) was 30 nM; with UPF2-MIF4GIII it was around 700 nM; in series [1], 620 nM.

B1: UPF3B-WT (residues 1–470) (natural protein, human, UniProt Q9BZI7-2 1-470, looked up)
chain: MKEEKEHRPKEKRVTLLTPAGATGSGGGTSGDSSKGEDKQDRNKEKKEALSKVVIRRLPPTLTKEQLQEHLQPMPEHDYFEFFSNDTSLYPHMYARAYINFKNQEDIILFRDRFDGYVFLDNKGQEYPAIVEFAPFQKAAKKKTKKRDTKVGTIDDDPEYRKFLESYATDNEKMTSTPETLLEEIEAKNRELIAKKTTPLLSFLKNKQRMREEKREERRRREIERKRQREEERRKWKEEEKRKRKDIEKLKKIDRIPERDKLKDEPKIKLLKKPEKGDEKELDKREKAKKLDKENLSDERASGQSCTLPKRSDSELKDEKPKRPEDESGRDYREREREYERDQERILRERERLKRQEEERRRQKERYEKEKTFKRKEEEMKKEKDTLRDKGKKAESTESIGSSEKTEKKEEVVKRDRIRNKDRPAMQLYQPGARSRNRLCPPDDSTKSGDSAAERKQESGISHRKEGGEE
notes: UPF3B, human, isoform 2 (the predominant form found in cells), residues 1-470, printed length 470; also called full-length UPF3B; source: insect cells (MultiBac), purified (Ni-NTA, TEV, reverse IMAC, ion exchange)
Consider B1, for which the binding result with UPF2L (120–1227) is reported as “binds”.

B2: 24mer dsRNA (dsRNA)
RNA 1: CCCUGAGCUGACGCAGCACCUGGG
RNA 2: CCCAGGUGCUGCGUCAGCUCAGGG
For the molecule B2, the Kd came out at 15 nM with UPF3B-WT (label: 5' HEX on strand 1, blunt); 37 nM with UPF3B-41-262; 280 nM with UPF3B-146-417; 1800 nM with UPF3B-146-256; 9.2 µM with UPF3B-41-143 (RRM-L); 1200 nM in the series with UPF3B-41-214.

Broadly, the Kd is a measure of binding affinity in units of concentration.
